Laboratory results reported in patent US20110294728A1, “Antiviral Polypeptides” (priority 2008, published 2011).
Where no end group is shown, it is not given here.

Experiments:
[1] = target: T1, HIV-1 reverse transcriptase, heterodimeric p66/p51 (HIV-1), P03366; assay: RT polymerase inhibition assay, Ki from Dixon plot
[2] = target: T1, HIV-1 reverse transcriptase, …; assay: RT polymerase inhibition assay, Ki
[3] = target: HIV-1 integrase (HIV-1); assay: steady state fluorescence and anisotropy
[4] = target: HIV-1 integrase (HIV-1); assay: cell-based or functional assay
[5] = target: HIV-1 integrase (HIV-1); assay: dissociation of the IN/LEDGF complex, AlphaScreen and immunoprecipitation; partner displaced: LEDGF
[6] = target: T1, HIV-1 reverse transcriptase, …; assay: RT polymerase inhibition assay
[7] = target: HIV-1 integrase (HIV-1); assay: IN 3′ processing inhibition, fluorescence anisotropy
[8] = target: HIV-1 integrase (HIV-1); assay: steady-state fluorescence anisotropy, fluorescein-labelled peptide titrated with IN
[9] = target: T2, RT:p/t (HIV-1 RT heterodimer pre-bound to DNA/DNA primer/template) (HIV-1), P03366; assay: steady-state fluorescence titration
[10] = target: T1, HIV-1 reverse transcriptase, …; assay: steady-state fluorescence titration, 200 nM FITC-PAW titrated with RT
[11] = target: T2, RT:p/t (HIV-1 RT heterodimer pre-bound …); assay: steady-state fluorescence titration, 200 nM FITC-PAW titrated with RT:p/t
[12] = target: HA-tagged Integrase (stably expressed in HeLa cells) (HIV-1); assay: cell-based or functional assay
[13] = target: T2, RT:p/t (HIV-1 RT heterodimer pre-bound …); assay: steady-state fluorescence titration, 20 nM RT:FAM-p/t titrated with PAW

## KWLTEWIPLTAE (modifications not checked) [P29]
[1]
  Ki: 1 µM

## GTKALTEVIPLTEEAE (modifications not checked) [P1]
[2]
  fold increase in potency against Pep-A: 5 fold
[1]
  Ki: 7.5 µM

## GTKWLTEWIPL (modifications not checked) [P24]
[3]
  Kd: 0.35 µM
[4]
  EC50 (µM) 3′processing: 33 µM
  EC50 (µM) IN/DNA binding: 35 µM
  EC50 (µM) IN/DNA dissociation: 21 µM
[1]
  Ki: 0.7 µM
[5]
  EC50: 13 µM

## GTKAATEVIPLTEEAE (modifications not checked) [P6]
[1]
  Ki: 5.7 µM

## CGTKWLTEWIPLTAEC (modifications not checked) [P27C1]
[6]
  Ki: 0.042 µM
[7]
  Ki: > 100 µM

## GTKALTEVIPATEEAE (modifications not checked) [P12]
[1]
  Ki: 22 µM

## ATKALTEVIPLTEEAE (modifications not checked) [P2]
[1]
  Ki: 28 µM

## GTKALTEVIPLAEEAE (modifications not checked) [P13]
[1]
  Ki: 10.2 µM

## GTKALTEVIALTEEAE (modifications not checked) [P11]
[1]
  Ki: 7 µM

## GTKALAEVIPLTEEAE (modifications not checked) [P7]
[2]
  fold reduction in potency against P1: 2 fold
[1]
  Ki: 13.5 µM

## CGTKWLTEVWPLC (modifications not checked) [P16C1]
[6]
  Ki: 32.1 µM
[3]
  Kd: 0.09 µM
[7]
  Ki: 4.3 µM

## GTKWLTEWIPLTAEAEC (not fully specified) [PAW-FITC]
[2]
  fold greater Ki than PAW: 3.8 fold
[4]
  IC50 3′-proc (gel electrophoresis): 10 µM
[8]
  Kd: 0.4 µM
  Δr (change of steady-state anisotropy): 0.06
[9]
  fold increase in affinity against RT without p/t: 5 fold
  fold lower Kd than unlabelled PAW: 5.6 fold
[1]
  Ki: 2.7 µM
[10]
  Kd: 0.033 µM
  quenching of FITC-PAW fluorescence: 39%
[11]
  Kd: 0.0071 µM
  quenching of FITC-PAW fluorescence: 57%

## GTAALTEVIPLTEEAE (modifications not checked) [P4]
[2]
  fold reduction in potency against P1: 2 fold
[1]
  Ki: 15 µM

## CGTKWLTEWIPLTAEAEC (modifications not checked) [PAW-C1]
[6]
  Ki: 0.2 µM
[3]
  Kd: 0.29 µM
[7]
  Ki: 21 µM

## GTKWLTEWIPLTAEAE (modifications not checked) [PAW]
[6]
  Ki: 0.7 µM
[3]
  Kd: 0.23 µM
[2]
  fold improvement in efficiency over P6: 10 fold
  fold improvement in efficiency over Pep-A: 50 fold
[4]
  EC50 (µM) 3′processing: 12 µM
  EC50 (µM) IN/DNA binding: 10 µM
  EC50 (µM) IN/DNA dissociation: 15 µM
  IC50 3′-proc: 12.7 µM
[12]
  IN half-life (cycloheximide treatment, 1 µM PAW): 17 min
  integrase located in the nucleus (High Content Screening, HeLa cells): 35%
[13]
  Kd: 0.04 µM
  quenching of fluorescence of FAM-labelled p/t: 39%
[1]
  Ki: 0.7 µM
[7]
  Ki: 12 µM
[5]
  EC50: 2 µM

## GTKALTEAIPLTEEAE (modifications not checked) [P9]
[2]
  fold reduction in potency against P1: 2 fold
[1]
  Ki: 15 µM

## RGTKALTEVIPLTEEAE (modifications not checked) [Pep-A]
[1]
  Ki: 35 µM

## GTKAWTEVWPL (modifications not checked) [P17]
[2]
  fold reduction in efficiency against PAW: 50 fold
[1]
  Ki: 35 µM

## GTKAATEVIPLT (modifications not checked) [P19]
[1]
  Ki: 49 µM

## GTKWLTEVWPL (modifications not checked) [P16]
[6]
  Ki: 14.4 µM
[3]
  Kd: 0.12 µM
[2]
  fold reduction in efficiency against PAW: 20 fold
[4]
  EC50 (µM) 3′processing: 10 µM
  EC50 (µM) IN/DNA binding: 8 µM
  EC50 (µM) IN/DNA dissociation: 11 µM
[1]
  Ki: 14 µM
[7]
  Ki: 10 µM
[5]
  EC50: 0.8 µM

## GTKWATEWAPLTAEAE (modifications not checked) [P28]
[1]
  Ki: 2 µM

## GCKWLTEWIPLTAEAEC (modifications not checked) [PAW-C2]
[6]
  Ki: 1.4 µM
[3]
  Kd: 0.12 µM
[7]
  Ki: 8 µM

## GTKALTEVAPLTEEAE (modifications not checked) [P10]
[1]
  Ki: 7.3 µM

## GTKWLTEWIPLTAE (modifications not checked) [P27]
[6]
  Ki: 0.05 µM
[3]
  Kd: > 100 µM
[2]
  fold increase in efficiency against PAW: 14 fold
[4]
  EC50 (µM) 3′processing: > 100 µM
  EC50 (µM) IN/DNA binding: > 100 µM
  EC50 (µM) IN/DNA dissociation: > 100 µM
[1]
  Ki: 0.05 µM
[7]
  Ki: > 100 µM

## GTKALTEVIPLT (modifications not checked) [P18]
[1]
  Ki: 53 µM

## KWLTEWIPLTAEAE (modifications not checked) [P26]
[3]
  Kd: 0.32 µM
[2]
  fold reduction in efficiency against PAW: 2.5 fold
[4]
  EC50 (µM) 3′processing: 28 µM
  EC50 (µM) IN/DNA binding: 54 µM
  EC50 (µM) IN/DNA dissociation: 67 µM
[1]
  Ki: 1.8 µM
[5]
  EC50: > 50 µM

## GTKALTAVIPLTEEAE (modifications not checked) [P8]
[2]
  fold reduction in efficiency against P1: 8 fold
[1]
  Ki: 57 µM

## GTKGLTEVIPLTEEAE (modifications not checked) [P5]
[2]
  fold reduction in potency against P1: 2.7 fold
[1]
  Ki: 20 µM

## GAKTETLVIPETELEA (modifications not checked) [Pscramble]
[1]
  Ki: 61 µM
